From the supplement of paper PMC10126150
± gives the standard deviation of the averaged measurements.

System: ATP
Assay: switch fluorescence ratio, 500 uM ATP over buffer (Cy3 cluster intensity, sum of 5 cycles each) (fold (ratio)); higher = stronger signal-on switching upon ATP binding; sequences stand for … in TCGTCGGCAGCGTCAGATGTGTATAAGAGACAGTTTTTTTTTTTTTTTTTTTTTTTTT…TC
Conditions: aptamer strand: ATP DNA aptamer (quencher-CACCTGGGGGAGTATTGCGGAGGAAGG + anchor), 100 nM annealed; ATP concentration: 500 uM
Procedure, shortened: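 After annealing to 100 nM quencher-labelled ATP aptamer, Cy3-labelled switching-strand clusters on a modified Illumina MiSeq flow-cell were imaged in selection buffer. A second image followed after 15 min with 500 uM ATP at 22 °C, and five such buffer/ATP cycles were done, each separated by NaOH stripping and re-annealing. The fluorescence ratio, averaged per switch-domain sequence, is summed target-cycle over summed buffer-cycle Cy3 intensity per cluster, with clusters outside 100-1000 RFU excluded.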
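Note: ATP exposure 15 min at 22 °C before imaging.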

Sequence | switch fluorescence ratio
CAATAGGAGA | 0.981 ± 0.028
CAATAGGGGC | 0.969 ± 0.03
CAATATTATG | 1.02 ± 0.02
CAATCAACCG | 1.064 ± 0.0015
CAATCATAGT | 0.989 ± 0.028
CAATCATGG | 1.01 ± 0.019
CAATCTTCGT | 1.02 ± 0.021
CAATGAAATC | 1.02 ± 0.027
CAATGAGGTG | 1.08 ± 0.036
CAATGGAAGG | 1.03 ± 0.025
CAATGGGGGG | 1.02 ± 0.03
CAATGGTCCA | 1.03 ± 0.024
CAATGGTGGT | 1.01 ± 0.028
CAATGTGAGG | 1.01 ± 0.0063
CAATGTGGGA | 1.01 ± 0.021
CAATGTGTTT | 1.01 ± 0.035
CAATGTTGAG | 1 ± 0.032
CAATGTTGAT | 1.01 ± 0.026
CAATTAGGGA | 0.985 ± 0.017
CAATTATCGC | 0.988 ± 0.028
CAATTCAGAT | 0.952 ± 0.028
CAATTCATTA | 1.02 ± 0.02
CAATTGCGGG | 0.988 ± 0.055
CAATTGCTGT | 1.01 ± 0.012
CAATTTAATA | 1.01 ± 0.019

Sequence | switch fluorescence ratio
CAATTTCGTT | 1.01 ± 0.021
CAATTTTAGG | 0.987 ± 0.018
CACAACGGGA | 0.985 ± 0.029
CACAAGCGAT | 1.42 ± 0.063
CACACAGTAT | 1.0721 ± 0.00011
CACACGTTAT | 1.19 ± 0.019
CACAGGAGGG | 1.03 ± 0.019
CACAGGGCGG | 1.04 ± 0.017
CACAGTGAGT | 0.997 ± 0.021
CACAGTGGTA | 1.03 ± 0.058
CACATCATAT | 1.04 ± 0.039
CACATTATGA | 1.04 ± 0.014
CACCAGAGCT | 1.09 ± 0.026
CACCAGGGCT | 1.6 ± 0.051
CACCGGCTGG | 0.986 ± 0.086
CACCTTACTC | 2.07 ± 0.11
CACGACTTCC | 2.27 ± 0.12
CACGAGGAGG | 0.9809 ± 0.0055
CACGAGGTTG | 0.992 ± 0.02
CACGCAGGGT | 1.11 ± 0.12
CACGCATGTT | 1.09 ± 0.015
CACGCGTATG | 1.03 ± 0.011
CACGGAGAGT | 1.14 ± 0.18
CACGGATAGC | 1.07 ± 0.027
CACGGCGTAG | 1.02 ± 0.013

Sequence | switch fluorescence ratio
CACGGGGGAC | 1.06 ± 0.021
CACGGGGGAT | 1.03 ± 0.011
CACGGGGTCC | 1.06 ± 0.069
CACGGGTGTT | 1.32 ± 0.12
CACGGTGCGG | 1.01 ± 0.015
CACGTATCTC | 1.2 ± 0.05
CACGTCCAC | 1.44 ± 0.061
CACGTTATAG | 1.19 ± 0.026
CACGTTGTAT | 1.32 ± 0.42
CACTAACTA | 1.121 ± 0.0035
CACTAATGGT | 1.073 ± 0.0072
CACTAGCTCG | 1.02 ± 0.021
CACTAGGGGA | 1 ± 0.028
CACTAGTCTG | 1.01 ± 0.033
CACTATAACT | 1.071 ± 0.0068
CACTATAGCG | 1.042 ± 0.0098
CACTCTGTCA | 1.04 ± 0.022
CACTCTTGAT | 1.01 ± 0.019
CACTGAAGTT | 1.026 ± 0.00036
CACTGGGGCA | 1.1 ± 0.15
CACTGGGTGT | 1.24 ± 0.021
CAGAAACGGT | 1 ± 0.047
CAGAACCCGC | 1.1 ± 0.015
CAGAAGTCCA | 0.991 ± 0.052
CAGAATGGTG | 0.978 ± 0.028

Sequence | switch fluorescence ratio
CAGAATGTTA | 1 ± 0.038
CAGAATTTAG | 0.996 ± 0.024
CAGACCGGTT | 0.996 ± 0.035
CAGAGAAAGG | 0.997 ± 0.014
CAGAGAAAGT | 0.973 ± 0.038
CAGAGAAGGC | 0.991 ± 0.018
CAGAGACTTT | 0.994 ± 0.012
CAGAGAGTTA | 0.984 ± 0.024
CAGAGGGGAG | 1.03 ± 0.027
CAGAGGGGGT | 0.988 ± 0.017
CAGAGGGTGC | 1.03 ± 0.017
CAGAGGTGGC | 1.07 ± 0.032
CAGAGTGTGA | 1.005 ± 0.0086
CAGATAGGTG | 1.15 ± 0.089
CAGATATTAC | 1.06 ± 0.035
CAGATCAGTA | 0.964 ± 0.015
CAGATCCTTA | 1.051 ± 0.0082
CAGATCGGTT | 0.964 ± 0.014
CAGATGGGTA | 0.971 ± 0.025
CAGATGTGGC | 0.927 ± 0.037
CAGATGTTTT | 0.987 ± 0.052
CAGATTCTGT | 0.973 ± 0.023
CAGATTTAAG | 0.994 ± 0.017
CAGATTTAGC | 0.9728 ± 0.0068
CAGCACGCGC | 1.06 ± 0.038
